In paper PMC2673426:

Legend:
hSBP2 (Homo sapiens) = biological target: T1, hSBP2 (Homo sapiens) (UniProt Q96T21); test: EMSA
T1 sequence: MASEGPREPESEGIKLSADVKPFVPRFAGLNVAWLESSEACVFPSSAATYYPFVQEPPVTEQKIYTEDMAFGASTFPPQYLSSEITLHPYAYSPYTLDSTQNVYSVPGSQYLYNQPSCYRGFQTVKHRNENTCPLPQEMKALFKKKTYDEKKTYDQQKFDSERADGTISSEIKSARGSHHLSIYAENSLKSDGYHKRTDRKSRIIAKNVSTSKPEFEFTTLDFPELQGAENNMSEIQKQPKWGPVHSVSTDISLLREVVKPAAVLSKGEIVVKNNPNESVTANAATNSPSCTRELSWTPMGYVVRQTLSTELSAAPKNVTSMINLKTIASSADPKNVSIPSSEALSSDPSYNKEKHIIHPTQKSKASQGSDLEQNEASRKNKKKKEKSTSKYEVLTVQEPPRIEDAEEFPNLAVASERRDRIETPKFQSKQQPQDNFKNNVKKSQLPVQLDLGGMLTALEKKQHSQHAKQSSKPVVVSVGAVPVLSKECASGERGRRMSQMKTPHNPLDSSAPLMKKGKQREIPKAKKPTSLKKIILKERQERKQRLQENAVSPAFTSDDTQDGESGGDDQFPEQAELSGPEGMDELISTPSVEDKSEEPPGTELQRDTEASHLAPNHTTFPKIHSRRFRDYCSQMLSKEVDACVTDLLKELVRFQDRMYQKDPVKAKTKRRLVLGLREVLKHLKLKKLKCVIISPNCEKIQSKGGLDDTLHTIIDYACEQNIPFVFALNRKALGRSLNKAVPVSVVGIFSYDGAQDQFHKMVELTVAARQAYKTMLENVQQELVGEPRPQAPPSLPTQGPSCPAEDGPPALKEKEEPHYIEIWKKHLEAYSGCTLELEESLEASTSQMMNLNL

[1] = biological target: T2, dSBP2 (Drosophila melanogaster) (UniProt Q9VSH1); test: EMSA
T2 sequence: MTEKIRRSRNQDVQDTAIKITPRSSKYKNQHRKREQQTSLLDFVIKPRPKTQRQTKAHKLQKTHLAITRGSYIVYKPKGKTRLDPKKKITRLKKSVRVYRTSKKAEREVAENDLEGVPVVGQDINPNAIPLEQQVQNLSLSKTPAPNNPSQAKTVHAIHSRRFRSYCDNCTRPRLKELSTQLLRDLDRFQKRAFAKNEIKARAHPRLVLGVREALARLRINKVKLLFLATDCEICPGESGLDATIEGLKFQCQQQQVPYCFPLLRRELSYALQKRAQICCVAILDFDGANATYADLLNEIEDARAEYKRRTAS

| Substance | Kd (hSBP2 (Homo sapiens)) [nM] | Kd [1] [nM] |
| --- | --- | --- |
| GPx1 SECIS (form 1) | 400 |  |
| dSelK SECIS (form 2) |  | 260 |
| dSelH SECIS (form 2) |  | 170 |
